Reference: patent US20060110492A1, “Preparation and food product comprising an active phytase” (priority 2003, published 2006)

How the values were obtained:
[1] = Fe retained in sedimented fraction of suspended salt (AES/ICP); format: physicochemical
Procedure: The prepared FePA as described in Example 3 was suspended either at pH 2 or at pH 5,5 in a concentration of 35.8 g per liter. After sedimentation, the supernatant fraction of both suspensions was analysed by AES/ICP.
Subsequently, the suspension of pH=2 was centrifuged 10 minutes at 6000 rpm at room temperature. The pellet was dissolved in 15 g concentrated […] and the solution was analyzed by AES/ICP.
This procedure was repeated with iron phosphate. This salt was prepared in the same way as the preparation of the essential cation phytates: the cation was dissolved as its sulfate, and subsequently precipitated with a basic solution of sodium phosphate. The precipitate was collected and washed.

[2] = Mineral partitioning in ground Cruesli with added FePA and/or phytase (AES-ICP); format: biochemical; conditions: phytase 115 FTU/g
Procedure: 0.1 g of this preparation was added to 20 g ground Cruesli™ (Quaker Foods & Beverages). […] […] The suspension was incubated at 37° C. with constant stirring for 4 h, and subsequently centrifuged for 20 minutes at 16000 rpm and 4° C. After centrifugation, the sediment and the supernatant fraction were separated, weighed and analyzed by AES-ICP to determine their phosphorus, calcium, magnesium, zinc and iron content. Control suspensions without phytase activity (but with the FePA), and without both FePA and phytase underwent the same procedure.

[3] = Mineral partitioning in ground Cruesli fractions with added phytase activity (AES-ICP); format: biochemical
Procedure: Various phytase preparations are commercially available. We have used the liquid formulation NATUPHOS™ 5000 L (DSM, Delft, The Netherlands). Again we used ground Cruesli™ (Quaker Foods & Beverages) as model phytate-containing foodstuff. About 20 grams ground Cruesli™ was suspended in two separate lots of 40 g acetate buffer (0.25 M, pH 5.5, 37° C.). To one of the lots, 1.2 g of the phytase preparation was added, to achieve a final activity of 100 FTU/g. The suspensions were incubated at 37° C. with constant stirring for 1,5 h, and subsequently centrifuged for 20 minutes at 16000 rpm and 4° C. After centrifugation the sediment and the supernatant fraction were separated, weighed and analyzed by AES-ICP to determine their phosphorus, calcium, magnesium and zinc content.
The procedure for this example was the same as for Example 6, but a lower final phytase activity in the incubation was used: 1 FTU/g, instead of 100. The incubation time was lowered to 1 hour.
The procedure for this example was the same as for Example 7, but at a lower pH value and a longer incubation time. This was done to simulate the conditions existant in the stomach. We looked specifically at iron, because iron salts are believed to be particularly poorly soluble at higher pH values, making breakdown in the stomach an attractive option. Iron concentrations were determined by AES-ICP.

[4] = characteristic stomach pH-values; cited from earlier work
[5] = Phytase activity on different substrates (method of Engelen et al.); format: biochemical; conditions: 37° C.; for Activity: incubation 60 minutes
Procedure: The activity of Aspergillus niger phytase (NATUPHOS™) was tested against NaPA and CaPA. The influence of the metal in the phytate source on the phytase activity (37° C. using an incubation time of 60 minutes) was investigated. The rate of phytate hydrolysis was determined using the analytical method described by Engelen et al., J. AOAC Int. 77:760-764 (1994).

[6] = incubation pH 2, 37° C., 4 h, where added: Fe-phytate 450 mg/kg
[7] = incubation pH <1, where added: Fe-phytate 450 mg/kg
[8] = pH 2, 37° C., 2 h, phytase 1 FTU/g
[9] = pH 5.5, 37° C., 1 h, phytase 1 FTU/g
[10] = pH 5.5, 37° C., 1.5 h, phytase 100 FTU/g
[11] = incubation pH 5.5, where added: Fe-phytate 450 mg/kg

Iron-phytate [Fe-phytate]
Fe retained in the sedimented fraction ([1]; suspended at pH 2): more than 90%
Fe retained in the sedimented fraction ([1]; suspended at pH 5.5): more than 90%
Percentage of mineral in supernatant fraction, Iron [2, 6]: 10%
Percentage of mineral in supernatant fraction, Phosphorus [2, 6]: 9.6%
Percentage of mineral in supernatant fraction, Iron [2, 7]: 23%
Percentage of mineral in supernatant fraction, Phosphorus [2, 7]: 68%

iron phosphate [reference compound]
Fe retained in the sedimented fraction ([1]; suspended at pH 2): less than 10%
Fe retained in the sedimented fraction ([1]; suspended at pH 5.5): more than 90%

B1: phytase: Phytase from A. niger commercialized under the trade name NATUPHOS; liquid (5000 L) and granulated (5000 G) formulations, 5000 FTU/g (protein, UniProt P34752 24-467, looked up)
Phytase A: ASRNQSSCDTVDQGYQCFSETSHLWGQYAPFFSLANESVISPEVPAGCRVTFAQVLSRHGARYPTDSKGKKYSALIEEIQQNATTFDGKYAFLKTYNYSLGADDLTPFGEQELVNSGIKFYQRYESLTRNIVPFIRSSGSSRVIASGKKFIEGFQSTKLKDPRAQPGQSSPKIDVVISEASSSNNTLDPGTCTVFEDSELADTVEANFTATFVPSIRQRLENDLSGVTLTDTEVTYLMDMCSFDTISTSTVDTKLSPFCDLFTHDEWINYDYLQSLKKYYGHGAGNPLGPTQGVGYANELIARLTHSPVHDDTSSNHTLDSSPATFPLNSTLYADFSHDNGIISILFALGLYNGTKPLSTTTVENITQTDGFSSAWTVPFASRLYVEMMQCQAEQEPLVRVLVNDRVVPLHGCPVDALGRCTRDSFVRGLSFARSGGDWAECFA
% of mineral in supernatant fraction, Iron [3, 8]: 14%
% of mineral in supernatant fraction, Phosphorus [3, 8]: 33%
% of mineral in supernatant fraction, Calcium [3, 9]: 30%
% of mineral in supernatant fraction, Magnesium [3, 9]: 36%
% of mineral in supernatant fraction, Phosphorus [3, 9]: 30%
% of mineral in supernatant fraction, Zinc [3, 9]: 22%
% of mineral in supernatant fraction, Calcium [3, 10]: 40%
% of mineral in supernatant fraction, Magnesium [3, 10]: 49%
% of mineral in supernatant fraction, Phosphorus [3, 10]: 42%
% of mineral in supernatant fraction, Zinc [3, 10]: 19%
Percentage of mineral in supernatant fraction, Iron [2, 11]: 6%
Percentage of mineral in supernatant fraction, Phosphorus [2, 11]: 45%
residual activity, % of optimal activity [4]: about 50%
activity of phytase on sodium and on calcium phytate compared ([5]; 60 minutes): equivalent
Activity ([5]; substrate 4.6 mM calcium phytate): 3.12 * 10^5 FTU/g
Activity ([5]; substrate 5.1 mM calcium phytate): 3.07 * 10^5 FTU/g
Activity ([5]; substrate 5.1 mM sodium phytate): 3.06 * 10^5 FTU/g
Activity ([5]; substrate 5.6 mM calcium phytate): 3.10 * 10^5 FTU/g
